Earlier results on 1 substance are cited in patent EP4748396A1, “PHARMACEUTICAL COMPOSITION CONTAINING ANTI-NECTIN4 ANTIBODY-DRUG CONJUGATE AND ANTI-PD-1 ANTIBODY AND USE THEREOF” (priority 2023, dated 2025).

The conditions of the series: 2019 FDA announcement.

In the case of Enfortumab Vedotin [PADCEV], the skin adverse reactions entry is “may cause severe skin adverse reactions, including Stevens-Johnson syndrome (SJS) and toxic epidermal necrolysis (TEN)”.
